This assay concerns the target murine anti-HMW-MAA monoclonal antibody 763.74. Kind of assay: ELISA on plates coated with MAb 763.74, culture supernatant, detected with alkaline phosphatase-conjugated anti-human γ.

B1: chimeric antiidiotypic monoclonal antibody MK2-CHγ1 (antibody, V domains shown)
VH: LQESGGGLVQPGGSRKLSCAASGFTFSSFGMHWVRQAPEKGLEWVAYISSDSSNIYYADTVKGRFTISRDNPKNTLFLQMTSLRSEDTAMYYCARSNYVGYHVRWYFDVWGQGTTVT
VL: QLTQSPASLAVSLGQRVTISCRASESVEYYGSSLMQWYQQKPGQPPKLLIYAASNVESGVPARFSGSGSGTDFSLNIHPVEEDDIAMYFCQQSRKIPYTFGGGTKLEI
Take B1: the A405 came out at 0.78 A405.

These data come from patent publication US5866124.
